# B1: MtRipACC (coiled-coil domain of M. tuberculosis RipA, residues 40-240) (domain or fragment)
# chain: DPQTDTIAALIADVAKANQRLQDLSDEVQAEQESVNKAMVDVETARDNAAAAEDDLEVSQRAVKDANAAIAAAQHRFDTFAAATYMNGPSVSYLSASSPDEIIATVTAAKTLSASSQAVMANLQRARTERVNTESAARLAKQKADKAAADAKASQDAAVAALTETRRKFDEQREEVQRLAAERDAAQARLQAARLVAWSSE
# modifications: biotinylated with EZ-Link NHS-PEG4-Biotin (20 molar excess) for the BLI assays
# notes: also called RipA coiled-coil (CC) domain; MtRipA CC domain; not shown: 6xHis-SUMO, N-terminal, cleaved
# Target: T1, MtSteBΔTM (M. tuberculosis SteB devoid of its TM domain, residues 38-314) (Mycobacterium tuberculosis, UniProt P9WJ83 38-314)
# T1 construct: Homodimer in both crystal structures; also called Rv1698; MctB; not shown: 6xHis-SUMO, N-terminal, cleaved
# Assay: BLI; biotinylated MtRipACC immobilised on streptavidin biosensors; 25°C; 25 mM HEPES pH 7.5, 150 mM NaCl, 5% glycerol, BSA 1 mg/mL, 0.05% Tween 20; steady-state signal versus concentration, one-site binding model; apparent Kd
# Details: both partners purified
binder,measurement,value
B1,Kd,42.6 ± 4.4 µM
